Test [1] deals with H5 hemagglutinin (HA) of H5N1 influenza A virus, strain not stated (influenza A virus (H5N1), strain not stated). The experiment in a line: cross-inhibition of binding to HA; competitor: FLD194.
For test [2] the target is unchanged. The experiment in a line: cross-inhibition of binding to HA; competitor: FLD20.19.
Test [3] deals with hemagglutinin of A/Indonesia/5/05 (H5N1, clade 2) (influenza A virus A/Indonesia/5/05 (H5N1)). The experiment in a line: cell-based or functional assay.
Test [4] addresses hemagglutinin of H5N1 clade 1 strain HK/491/97 (influenza A virus HK/491/97 (H5N1)). The experiment in a line: cell-based or functional assay.
Test [5] deals with hemagglutinin of A/Vietnam/1203/04 (H5N1) (influenza A virus A/Vietnam/1203/04 (H5N1)). The experiment in a line: cell-based or functional assay.
Test [6] addresses hemagglutinin of H5N1 clade 1 strain VN/1194.04 (influenza A virus VN/1194.04 (H5N1)). The experiment in a line: cell-based or functional assay.
The target of test [7] is hemagglutinin of H5N1 clade 1 strain A/Hong Kong/213/03 (influenza A virus A/Hong Kong/213/03 (H5N1)). The experiment in a line: cell-based or functional assay.
Test [8] has as its target H5 hemagglutinin (HA) of H5N1 influenza A virus, strain not stated (influenza A virus (H5N1), strain not stated). The experiment in a line: cross-inhibition of binding to HA; competitor: FLA3.14.
Test [9] concerns the target hemagglutinin of H5N1 clade 2.2 strain WS/Mong/244/05 (influenza A virus WS/Mong/244/05 (H5N1)). The experiment in a line: cell-based or functional assay.
Test [10] addresses hemagglutinin of H5N1 clade 2.3 strain Anhui/1/05 (influenza A virus Anhui/1/05 (H5N1)). The experiment in a line: cell-based or functional assay.
Test [11] deals with hemagglutinin of H5N1 clade 2.2 strain TY/TY/1/05 (influenza A virus TY/TY/1/05 (H5N1)). The experiment in a line: cell-based or functional assay.

B1: FLD127 (antibody, V domains shown)
VH: QVQLVESGGGVVQPGRSLRLSCAASGFTFSSYGMHWVRQAPGKGLEWVAVIWYDGDNKYYGDSVKGRFTISRDNSKNTLFLQMNSLRAEDTAVYYCAKDTADHGDYVDLGFFDAWGQGTLVTVSS
VL: DIQMTQSPSSVSASVGDRVTITCRASQDVSTWLAWYQLKPGKAPKLLIYAASSLQSGVPSRFSGSGSGTDFTLTVSSLQPEDFATYYCQQANSFPFTFGPGTKVDIK
For the molecule B1, the Inhibition of binding (%) in test [1] is 0%; in [2], 100%; in test [8], 0%. Further, the Reciprocal neutralising titre of culture supernatant (reciprocal titre) in test [3] was less than 8; in test [4], 102; in test [5], 81. The IC50, neutralisation of retroviral pseudotypes in test [5] was determined as 13 ng/mL; in test [6] it was 19 ng/mL; in test [7] it was 750 ng/mL.

B2: FLA3.14 (antibody, V domains shown)
VH: EVQLVQSGAEVKKPGESLKISCQASGYSFTSRWIGWVRQMPGKGLEWVGFIYPSDSDVRYSPSFRGQVTISADKSISTAYLQWSSLKASDTAMYFCARLGGNKDYGDYLWYFDLWGRGALVTVSS
VL: EIVMTQSPDTLSVSPGERATLSCRASQSVNRRLAWYQQKPGQAPRLLIHDASTRATGIPARFSGSGSGTEFTLTISSLQSEDFAVYYCQQYDNWLSFGQGTRLEIK
B2: the Inhibition of binding (%) worked out at 100% in [1], 0% in test [2] and 100% in [8]. The IC50, neutralisation of retroviral pseudotypes was determined as 67 ng/mL in test [9]; 12 ng/mL in [3]; 172 ng/mL in test [10]; 65 ng/mL in test [5]; 86 ng/mL in [6]; 33 ng/mL in [7]. Also, the IC50, neutralisation of retroviral pseudotypes in test [11] turned out to be 76 ng/mL.

B3: FLD93 (antibody, V domains shown)
VH: WWQLVQSGAEVKKPGSSVKVSCKASGGTFSSYDISWVRQAPGQGLEWMGGIIPIYGTANYAQKFQGRVTITADESTSTAYMELSSLRSEDTAVYYCARAGGDSSGYYGALGRFFQHWGQGTLVTVSS
VL: VIWMTQSPSLLSASTGDRVTISCRMSQGISSYLAWYQQKPGKAPELLIHTAYTLKSGVPSRFSGSGSGKDFTLTISGLQSEDFATYYCQQYYSFPYTFGQGTKVEIK
On to B3, for which the Inhibition of binding (%) in [1] stood at 0%; in [2], 100%; in test [8] it was 0%. Moreover, the IC50, neutralisation of retroviral pseudotypes was 11 ng/mL in [9]; 59 ng/mL in test [3]; 48 ng/mL in test [5]; 22 ng/mL in test [6]; 11 ng/mL in test [7]; 13 ng/mL in [11]. In addition, the Reciprocal neutralising titre of culture supernatant (reciprocal titre) in test [3] came out at 406; in test [4], 20; in test [5], 40.

B4: FLA5.10 (antibody, V domains shown)
VH: QVQLVQSGAEVKEPGSAMKVSCKASGGTFSSDAFCWVRQAPGRGLEWMGGIIPVFQTANYGPNFQGRVTISADVYTTTLYLELSGLTSEDTAVYFCARSGDGYNYYFPLWGQGTLVTVSS
VL: DIQMTQSPSTLSGSVGDRVTITCRASQNIGPWLAWYQQESGKAPKLLISRASILESGVPSRFSGTGTGTEFTLTISSLQPDDFATYYCQHYNAYWGTFGQGTKVEIN
As for B4, the Inhibition of binding (%) worked out at 100% in test [1], 100% in test [2] and 0% in test [8]. The IC50, neutralisation of retroviral pseudotypes was found to be 24 ng/mL in [5], 26 ng/mL in test [6] and 2.5 ng/mL in test [7].

The record behind these values is patent US20100278834A1.
